# Target: Vibrio cholerae chromosome 2 ParA (ParA2vc) (Vibrio cholerae)
# Test: negative-stain EM; ParA2vc 1 mg/ml with or without 3.5 mM nucleotide and MgCl2, 30 °C 15 min, diluted 1/100 in 100 mM NaCl, 50 mM Tris pH 7.5; no DNA; 2D classification of particles; monomers to dimer
substance,measurement,value
Vibrio cholerae chromosome 2 ParA (ParA2vc),stoichiometry N,2

# From PMC8397727, “The structure of the bacterial DNA segregation ATPase filament reveals the conformational plasticity of ParA upon DNA binding” (Nature Communications, 2021)
